Measured values from publication PMC12850475.

Legend:
Protein A (SpA) [1] = molecular target: Protein A (SpA) (UniProt P38507); test: SPR
Protein A (SpA) [2] = molecular target: Protein A (SpA) (UniProt P38507); test: SPR; Protein A amine-coupled to a CM5 chip (channel 2, 122 RU); antibodies eluted by pH (50 mM sodium acetate pH 3.0) as analyte at 12.5 and 25 µg/mL in HBS-P; qualitative; percent able to bind calculated from a standard curve; triplicate

## human Immunoglobulin G purified from human blood plasma (antibody)
Protein A (SpA) [1]
  percentage of antibody still able to bind: 74.8%
Protein A (SpA) [2]
  percentage of antibody still able to bind: 46.7%
